Data: publication PMC8699464, “Cyclic Tetra-Adenylate (cA4) Recognition by Csa3; Implications for an Integrated Class 1 CRISPR-Cas Immune Response in Saccharolobus solfataricus” (Biomolecules, 2021)

Columns and labels:
Csa3a (SsCsa3a) [1] = biological target: T1, Csa3a (SsCsa3a) (Saccharolobus solfataricus P2, UniProt Q97Y88 1-237); experiment: fluorescence polarization; conditions: 37 C 30 min, 18 nM DNA (5.2 ng/uL), +/-10 uM cA4, 2% agarose, FP: 20 mM SPG, 50 mM NaCl, pH 6.5, 50 C (also 21 C), 30 nM DNA, ITC: 10 mM Tris
T1 sequence: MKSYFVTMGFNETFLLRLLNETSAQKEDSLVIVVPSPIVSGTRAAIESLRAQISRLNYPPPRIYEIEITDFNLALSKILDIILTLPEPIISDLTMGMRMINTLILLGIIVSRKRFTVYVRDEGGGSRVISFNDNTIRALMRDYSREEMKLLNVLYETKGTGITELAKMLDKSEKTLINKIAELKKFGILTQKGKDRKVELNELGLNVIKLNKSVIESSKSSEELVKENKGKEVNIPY

Csa3a (SsCsa3a, Sso1445) = biological target: T2, Csa3a (SsCsa3a, Sso1445) (Saccharolobus solfataricus, UniProt Q97Y88); experiment: ITC at […] °C; co-crystal structure at […] Å; type: binding
T2 construct: gene csa3; 6×His-tagged Sso1445 (pEXP14-6×His-Sso1445), homodimer; crystal model lacks residues 213–237 of both chains and 160–162, 174–176, 192–195 of chain A
T2 sequence (Q97Y88 1-237): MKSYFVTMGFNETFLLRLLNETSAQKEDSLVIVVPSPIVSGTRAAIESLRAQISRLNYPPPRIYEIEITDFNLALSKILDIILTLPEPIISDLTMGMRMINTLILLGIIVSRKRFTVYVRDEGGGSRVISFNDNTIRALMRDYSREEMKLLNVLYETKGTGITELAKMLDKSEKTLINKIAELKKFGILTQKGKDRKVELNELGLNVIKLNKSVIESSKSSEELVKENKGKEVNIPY

Csa3a (SsCsa3a) [2] = biological target: T1, Csa3a (SsCsa3a); experiment: ITC; 25 C; 250-500 uM cA4; n about 0.6 per dimer; endothermic; EMSA: TAE, 37 C 30 min, 18 nM DNA (5.2 ng/uL), +/-10 uM cA4, 2% agarose; FP: 20 mM SPG, 50 mM NaCl, pH 6.5, 50 C (also 21 C), 30 nM DNA; ITC: 10 mM Tris, 50 mM; conditions: protein: recombinant; tags: 6xHis (pEXP14-6xHis-Sso1445); chain copies: 2; cyclic, single copy per Csa3a dimer
[3] = biological target: the molecule itself; experiment: crystal structure; Csa3a co-crystallised with cA4 by hanging drop vapor diffusion at 22 °C; 2.45 Å; space group P212121; one Csa3a dimer in the asymmetric unit

Molecule: 75 bp I-A (2) cas4a CAPPa fragment
- Kd (Csa3a (SsCsa3a) [1]; 10 uM cA4, 50 C, cooperative, EMSA: TAE): 0.21 µM
- Kd (Csa3a (SsCsa3a) [1]; no cA4, 50 C, cooperative, Hill about 2, EMSA: TAE): 0.27 µM

Molecule: Nc1ncnc2c1ncn2[C@@H]1O[C@@H]2COP(=O)(O)O[C@H]3[C@@H](O)[C@H](n4cnc5c(N)ncnc54)O[C@@H]3COP(=O)(O)O[C@H]3[C@@H](O)[C@H](n4cnc5c(N)ncnc54)O[C@@H]3COP(=O)(O)O[C@H]3[C@@H](O)[C@H](n4cnc5c(N)ncnc54)O[C@@H]3COP(=O)(O)O[C@H]2[C@H]1O [cA4, cyclic tetra-adenylate]
- Kd (Csa3a (SsCsa3a, Sso1445)): 1 to 1.5 µM

Molecule: 20 bp CAPPa, I-A (2) cas4a promoter
- Kd (Csa3a (SsCsa3a) [1]; 10 uM cA4, 50 C, EMSA: TAE): 2.7 µM
- Kd (Csa3a (SsCsa3a) [1]; no cA4, 50 C, non-cooperative, EMSA: TAE): 3.2 µM

Molecule: AAAA (ssRNA, cyclic, 3'-5' linked?) [cA4 (cyclic tetra-adenylate)]
- Kd (Csa3a (SsCsa3a) [2]): 1.23 µM

B1: Saccharolobus solfataricus Csa3a (Sso1445) (natural protein, UniProt Q97Y88 1-237, looked up)
chain: MKSYFVTMGFNETFLLRLLNETSAQKEDSLVIVVPSPIVSGTRAAIESLRAQISRLNYPPPRIYEIEITDFNLALSKILDIILTLPEPIISDLTMGMRMINTLILLGIIVSRKRFTVYVRDEGGGSRVISFNDNTIRALMRDYSREEMKLLNVLYETKGTGITELAKMLDKSEKTLINKIAELKKFGILTQKGKDRKVELNELGLNVIKLNKSVIESSKSSEELVKENKGKEVNIPY
notes: Csa3a (Sso1445) of Saccharolobus (Sulfolobus) solfataricus P2, with an N-terminal CARF domain and a C-terminal winged helix-turn-helix domain; also called SsCsa3a; SsCsa3; source: E. coli BL21 (DE3)-pRIL, purified (heat step at 60 °C, Ni-NTA, Superdex 75)
- binding result [3]: binds
